Results reported in the PETadex activity labels (doi:10.1016/j.ijbiomac.2025.149745).

Experiments:
[1] = substrate: PEF; test: Proxy for plastic degradation [kcat] (s⁻¹); conditions: pH 9
[2] = substrate: PET; test: Proxy for plastic degradation [kcat] (s⁻¹); conditions: pH 9
[3] = Proxy for plastic degradation [melting temperature]; conditions: pH 7
[4] = substrate: pNPB; test: Proxy for plastic degradation [kcat/Km (catalytic efficiency)] (mM⁻¹s⁻¹); conditions: pH 7
[5] = substrate: pNPB; test: Proxy for plastic degradation [PET preference ratio] (% relative activity); conditions: pH 7
[6] = substrate: PEF; test: Proxy for plastic degradation [Released monomer concentration (HPLC/LC-MS) (FDCA + MHEF)] (s⁻¹); conditions: pH 9
[7] = substrate: PET; test: Proxy for plastic degradation [Released monomer concentration (HPLC/LC-MS) (TPA+MHET+BHET)] (s⁻¹); conditions: pH 9

B1: unnamed (protein)
chain: MDGVLWRVRTAALMAALLALAAWALWASPSVEAQSNPYQRGPNPTRSALTADGPFSVATYTVSRLSVSGFGGVIYYPTGTSLTFGGIAMSPGYTADASSLAWLGRRLASHGFVVLVINTNSRFDYPDSRASQLSAALNYLRTSSPSAVRARLDANRLAVAGHSMGGGGTLRIAEQNPSLKAAVPLTPWHTDKTFNTSVPVLIVGCEADTVAPVSQHAIPFYQNLPSTTPKVYVELDNASHFCPNSNNAAISVYTISWMKLWVDNDTRYRQFLCNVNDPALSDFRTNNRHCQCQ
Proxy for plastic degradation [1]: 0.004
Proxy for plastic degradation [2]: 0.0031
Proxy for plastic degradation [3]: 82 °C
Proxy for plastic degradation [4]: 335

B2: unnamed (protein)
chain: MNFPRASRLMQAAVLGGLMAVSAAATAQTNPYARGPNPTAASLEASAGPFTVRSFTVSRPSGYGAGTVYYPTNAGGTVGAIAIVPGYTARQSSIKWWGPRLASHGFVVITIDTNSTLDQPSSRSSQQMAALRQVASLNGTSSSPIYGKVDTARMGVMGHSMGGGGSLISAANNPSLKAAAPQAPWDSSTNFSSVTVPTLIFAAENDSIAPVNSSALPIYDSMSRNAKQFLEINGGSHFAANSGNSNQALIGKKGVAWMKRFMDNDTRYSTFACENPNSTRVSDFRTANCS
Proxy for plastic degradation [1]: 0
Proxy for plastic degradation [2]: 0
Proxy for plastic degradation [3]: 39.5 °C
Proxy for plastic degradation [4]: 2.1
Proxy for plastic degradation [5]: 0
Proxy for plastic degradation [6]: 0
Proxy for plastic degradation [7]: 0

B3: unnamed (protein)
chain: MNFPRASRLMQAAVLGGLMAVSAAATAQTNPYARGPNPTAASLEASAGPFTVRSFTVSRPSGYGAGTVYYPTNAGGTVGAIAIVPGYTARQSSIKWWGPRLASHGFVVITIDTNSTLDQPSSRSSQQMAALRQVASLNGTSSSPIYGKVDTARMGVMGHSMGGGGSLISAANNPSLKAAAPQAPWDSSTNFSSVTVPTLIFACENDSIAPVNSSALPIYDSMSRNAKQFLEINGGSHSCANSGNSNQALIGKKGVAWMKRFMDNDTRYSTFACENPNSTRVSDFRTANCS
Proxy for plastic degradation [1]: 0.17
Proxy for plastic degradation [2]: 0.03
Proxy for plastic degradation [3]: 48 °C
Proxy for plastic degradation [4]: 45.8
Proxy for plastic degradation [6]: 0.2
Proxy for plastic degradation [7]: 0.03

B4: unnamed (protein)
chain: MNFPRASRLMQAAVLGGLMAVSAAATAQTNPYARGPNPTAASLEASAGPFTVRSFTVSRPSGYGAGTVYYPTNAGGTVGAIAIVPGYTARQSSIKWWGPRLASHGFVVITIDTNSTLDQPSSRSSQQMAALRQVASLNGTSSSPIYGKVDTARMGVMGWSMGGGGSLISAANNPSLKAAAPQAPWDSSTNFSSVTVPTLIFAAENDSIAPVNSSALPIYDSMSRNAKQFLEINGGSHSAANSGNSNQALIGKKGVAWMKRFMDNDTRYSTFACENPNSTRVSDFRTANCS
Proxy for plastic degradation [1]: 0
Proxy for plastic degradation [2]: 0
Proxy for plastic degradation [3]: 40.4 °C
Proxy for plastic degradation [4]: 0
Proxy for plastic degradation [5]: 0
Proxy for plastic degradation [6]: 0
Proxy for plastic degradation [7]: 0

B5: unnamed (protein)
chain: MNFPRASRLMQAAVLGGLMAVSAAATAQTNPYARGPNPTAASLEASAGPFTVRSFTVSRPSGYGAGTVYYPTNAGGTVGAIAIVPGYTARQSSIKWWGPRLASHGFVVITIDTNSTLDQPSSRSSQQMAALRQVASLNGTSSSPIYGKVDTARMGVMGWSMGGGGSLISAANNPSLKAAAPQAPWDSSTNFSSVTVPTLIFACENDSIAPVNSSALPIYDSMSRNAKQFLEINGGSHFCANSGNSNQALIGKKGVAWMKRFMDNDTRYSTFACENPNSTRVSDFRTANCS
Proxy for plastic degradation [1]: 0.35
Proxy for plastic degradation [2]: 0.035
Proxy for plastic degradation [3]: 48.5 °C
Proxy for plastic degradation [4]: 3.3
Proxy for plastic degradation [6]: 0.35
Proxy for plastic degradation [7]: 0.037

B6: unnamed (protein)
chain: MDGVLWRVRTAALMAALLALAAWALWASPSVEAQSNPYQRGPNPTRSALTADGPFSVATYTVSRLSVSGFGGVIYYPTGTSLTFGGIAMSPGYTADASSLAWLGRRLASHGFVVLVINTNSRFDYPDSRASQLSAALNYLRTSSPSAVRARLDANRLAVAGHSMGGGGTLRIAEQNPSLKAAVPLTPWHTDKTFNTSVPVLIVGCEADTVAPVSQHAIPFYQNLPSTTPKVYVELDNASHSCPNSNNAAISVYTISWMKLWVDNDTRYRQFLCNVNDPALSDFRTNNRHCQCQ
Proxy for plastic degradation [1]: 0.115
Proxy for plastic degradation [2]: 0.03
Proxy for plastic degradation [3]: 83 °C
Proxy for plastic degradation [4]: 125
Proxy for plastic degradation [5]: 0

B7: unnamed (protein)
chain: MDGVLWRVRTAALMAALLALAAWALWASPSVEAQSNPYQRGPNPTRSALTADGPFSVATYTVSRLSVSGFGGVIYYPTGTSLTFGGIAMSPGYTADASSLAWLGRRLASHGFVVLVINTNSRFDYPDSRASQLSAALNYLRTSSPSAVRARLDANRLAVAGHSMGGGGTLRIAEQNPSLKAAVPLTPWHTDKTFNTSVPVLIVGAEADTVAPVSQHAIPFYQNLPSTTPKVYVELDNASHSAPNSNNAAISVYTISWMKLWVDNDTRYRQFLCNVNDPALSDFRTNNRHCQCQ
Proxy for plastic degradation [1]: 0.085
Proxy for plastic degradation [2]: 0.035
Proxy for plastic degradation [3]: 85 °C
Proxy for plastic degradation [4]: 175

B8: unnamed (protein)
chain: MDGVLWRVRTAALMAALLALAAWALWASPSVEAQSNPYQRGPNPTRSALTADGPFSVATYTVSRLSVSGFGGVIYYPTGTSLTFGGIAMSPGYTADASSLAWLGRRLASHGFVVLVINTNSRFDYPDSRASQLSAALNYLRTSSPSAVRARLDANRLAVAGHSMGGGGTLRIAEQNPSLKAAVPLTPWHTDKTFNTSVPVLIVGAEADTVAPVSQHAIPFYQNLPSTTPKVYVELDNASHFAPNSNNAAISVYTISWMKLWVDNDTRYRQFLCNVNDPALSDFRTNNRHCQCQ
Proxy for plastic degradation [1]: 0.005
Proxy for plastic degradation [2]: 0.01
Proxy for plastic degradation [3]: 85 °C
Proxy for plastic degradation [4]: 398

B9: unnamed (protein)
chain: MDGVLWRVRTAALMAALLALAAWALWASPSVEAQSNPYQRGPNPTRSALTADGPFSVATYTVSRLSVSGFGGVIYYPTGTSLTFGGIAMSPGYTADASSLAWLGRRLASHGFVVLVINTNSRFDYPDSRASQLSAALNYLRTSSPSAVRARLDANRLAVAGWSMGGGGTLRIAEQNPSLKAAVPLTPWHTDKTFNTSVPVLIVGCEADTVAPVSQHAIPFYQNLPSTTPKVYVELDNASHSCPNSNNAAISVYTISWMKLWVDNDTRYRQFLCNVNDPALSDFRTNNRHCQCQ
Proxy for plastic degradation [1]: 0.006
Proxy for plastic degradation [2]: 0.0045
Proxy for plastic degradation [3]: 82.5 °C
Proxy for plastic degradation [4]: 2.8

B10: unnamed (protein)
chain: MDGVLWRVRTAALMAALLALAAWALWASPSVEAQSNPYQRGPNPTRSALTADGPFSVATYTVSRLSVSGFGGVIYYPTGTSLTFGGIAMSPGYTADASSLAWLGRRLASHGFVVLVINTNSRFDYPDSRASQLSAALNYLRTSSPSAVRARLDANRLAVAGWSMGGGGTLRIAEQNPSLKAAVPLTPWHTDKTFNTSVPVLIVGAEADTVAPVSQHAIPFYQNLPSTTPKVYVELDNASHFAPNSNNAAISVYTISWMKLWVDNDTRYRQFLCNVNDPALSDFRTNNRHCQCQ
Proxy for plastic degradation [1]: 0.033
Proxy for plastic degradation [2]: 0.003
Proxy for plastic degradation [3]: 84.9 °C
Proxy for plastic degradation [4]: 67

B11: unnamed (protein)
chain: MDGVLWRVRTAALMAALLALAAWALWASPSVEAQSNPYQRGPNPTRSALTADGPFSVATYTVSRLSVSGFGGVIYYPTGTSLTFGGIAMSPGYTADASSLAWLGRRLASHGFVVLVINTNSRFDYPDSRASQLSAALNYLRTSSPSAVRARLDANRLAVAGWSMGGGGTLRIAEQNPSLKAAVPLTPWHTDKTFNTSVPVLIVGAEADTVAPVSQHAIPFYQNLPSTTPKVYVELDNASHSAPNSNNAAISVYTISWMKLWVDNDTRYRQFLCNVNDPALSDFRTNNRHCQCQ
Proxy for plastic degradation [1]: 0.0175
Proxy for plastic degradation [2]: 0.018
Proxy for plastic degradation [3]: 84.5 °C
Proxy for plastic degradation [4]: 28

B12: unnamed (protein)
chain: MNFPRASRLMQAAVLGGLMAVSAAATAQTNPYARGPNPTAASLEASAGPFTVRSFTVSRPSGYGAGTVYYPTNAGGTVGAIAIVPGYTARQSSIKWWGPRLASHGFVVITIDTNSTLDQPSSRSSQQMAALRQVASLNGTSSSPIYGKVDTARMGVMGHSMGGGGSLISAANNPSLKAAAPQAPWDSSTNFSSVTVPTLIFACENDSIAPVNSSALPIYDSMSRNAKQFLEINGGSHFCANSGNSNQALIGKKGVAWMKRFMDNDTRYSTFACENPNSTRVSDFRTANCS
Proxy for plastic degradation ([1]; part of the chain shown): 0.08
Proxy for plastic degradation ([2]; part of the chain shown): 0.013
Proxy for plastic degradation ([3]; part of the chain shown): 47.9 °C
Proxy for plastic degradation ([4]; part of the chain shown): 22.8
Proxy for plastic degradation ([6]; part of the chain shown): 0.11
Proxy for plastic degradation ([7]; part of the chain shown): 0.012

B13: unnamed (protein)
chain: MNFPRASRLMQAAVLGGLMAVSAAATAQTNPYARGPNPTAASLEASAGPFTVRSFTVSRPSGYGAGTVYYPTNAGGTVGAIAIVPGYTARQSSIKWWGPRLASHGFVVITIDTNSTLDQPSSRSSQQMAALRQVASLNGTSSSPIYGKVDTARMGVMGWSMGGGGSLISAANNPSLKAAAPQAPWDSSTNFSSVTVPTLIFACENDSIAPVNSSALPIYDSMSRNAKQFLEINGGSHSCANSGNSNQALIGKKGVAWMKRFMDNDTRYSTFACENPNSTRVSDFRTANCS
Proxy for plastic degradation ([1]; part of the chain shown): 1.02
Proxy for plastic degradation ([2]; part of the chain shown): 0.09
Proxy for plastic degradation ([4]; part of the chain shown): 8.7
Proxy for plastic degradation ([6]; part of the chain shown): 1
Proxy for plastic degradation ([7]; part of the chain shown): 0.075
